The values below come from patent US20140370030A1 (CENTRE NATIONAL DE LA RECHERCHE SCIENTIFIQUE CNRS, published 2014).

The target of assay [1] is recombinant human sPLA2-X (human group X secreted phospholipase A2), mature enzyme (human) (UniProt O15496). Briefly: indirect ELISA on wells coated with 50 ng recombinant human sPLA2-X; one-site saturation fit, relative Kd. (In general: In an ELISA, binding on a coated surface is turned into a signal by an enzyme label.)
The target of assay [2] is T1, recombinant human sPLA2-X (human group X secreted phospholipase A2), mature enzyme (human, UniProt O15496 43-165).
T1 construct: also called hGX
T1 sequence: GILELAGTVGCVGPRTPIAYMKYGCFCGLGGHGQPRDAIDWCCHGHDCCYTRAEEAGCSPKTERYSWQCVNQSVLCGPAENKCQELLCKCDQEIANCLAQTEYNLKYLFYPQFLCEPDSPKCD
The description is as above.

Assay [3] has as its target T1, recombinant human sPLA2-X (human group …). In words: indirect ELISA on coated recombinant human sPLA2-X, anti-mouse IgG-HRP detection; one-site saturation fit.
The target is the same in assay [4]. In words: indirect ELISA on coated recombinant human sPLA2-X, streptavidin-HRP detection; one-site saturation fit.
Assay [5] has the same target. Briefly: indirect ELISA on coated recombinant human sPLA2-X.

“commercially available monoclonal antibody H9 (ref. SC-365730, Santa Cruz Biotechnology)”: the equilibrium dissociation constant (Kd) in assay [1] was determined as 8.94 nM.

B1: monoclonal anti-sPLA2-X antibody #8D9 (antibody, V domains shown)
VH: EVKLVESGGGLVKPGGSLKLSCAASGFTFSNYPMSWVRQTPAKRLEWVATISSGGDDTYYPDSVKGRFTISRDNARNTLYLQMSCLRSEDTALYYCARPQLGPWGQGTTLTVSS
VL: DIVMTQAAPSVPVTPGDSVSISCRSSKSLLHSNGITYLYWFLQRPGQSPQRLIYYMSNLASGVPDRFSGRGSGTDFTLRISRVEAEDVGVYYCMQSLEYPLTFGAGTKLELKR
notes: Mouse monoclonal antibody from a hybridoma, purified by protein A; also called 8D9 antibody; hybridoma CNCM I-4523
B1: the Kd came to 0.327 nM in assay [2] and 0.246 nM in assay [3].

B2: biotinylated monoclonal antibody #8D9 (antibody, V domains shown)
VH: B1 VH
VL: B1 VL
modifications: biotinylated (Pierce kit ref. 21435); sites not stated
notes: also called #8D9-Biot; 8D9-biot
Take B2: the Kd in assay [4] came to 0.353 nM.

B3: biotinylated monoclonal antibody #9C12 (antibody, V domains shown)
VH: QIQLVQSGPELKKPGETVKISCKASGYTFTNYGMNWVKQAPGKGLKWMGWIKTNTGEPTYAEEFKGRFAFSLETSASTAYLQINNLKNEDTATYFCARGNYYRPRRYFDYWGQGTTLTVSS
VL: DIQMSQSPASLSASVGETVTMTCRASENLYSNLAWYQQKQGKSPQLLVYAATNLADGVPSRFSGSGSGTQFSLKINSLQPEDFGSYYCQHFYVTPYTFGGGTKLEIKR
modifications: biotinylated (Pierce kit ref. 21435); sites not stated
notes: also called #9C12-Biot
With B3, the binding result in assay [5] was “binds”.

B4: monoclonal anti-sPLA2-X antibody #9C12 (antibody, V domains shown)
VH: B3 VH
VL: B3 VL
notes: Mouse monoclonal antibody from a hybridoma, purified by protein A; also called 9C12 antibody; hybridoma CNCM I-4524
In the case of B4, the Kd in assay [2] was 0.181 nM.

What is called Kd is the free concentration of one partner at which half of the binding sites on the other are occupied at equilibrium, for simple one-to-one binding.
